Literature values as cited in publication PMC8894873.

Biological target: Glu35 (UniProt position 53, CAAKFESNFNT)
Assay: not stated (a cited reference title indicates two-dimensional 1H NMR)

## Lysozyme (lysozyme C, presumably hen egg-white) (Gallus gallus (inferred; the article says only 'lysozyme'))
  pKa: 6.3
